In the experiment the target is E3 ligase MDM2 (Homo sapiens, UniProt Q00987). The experiment can be described thus: Peptide-photocatalyst conjugate labeling of MDM2 versus BSA. Particulars: peptide conjugated to photocatalyst through azido-lysine.

Ends that are not written are not given here.

Chain of E3 ligase MDM2 (Q00987 whole entry): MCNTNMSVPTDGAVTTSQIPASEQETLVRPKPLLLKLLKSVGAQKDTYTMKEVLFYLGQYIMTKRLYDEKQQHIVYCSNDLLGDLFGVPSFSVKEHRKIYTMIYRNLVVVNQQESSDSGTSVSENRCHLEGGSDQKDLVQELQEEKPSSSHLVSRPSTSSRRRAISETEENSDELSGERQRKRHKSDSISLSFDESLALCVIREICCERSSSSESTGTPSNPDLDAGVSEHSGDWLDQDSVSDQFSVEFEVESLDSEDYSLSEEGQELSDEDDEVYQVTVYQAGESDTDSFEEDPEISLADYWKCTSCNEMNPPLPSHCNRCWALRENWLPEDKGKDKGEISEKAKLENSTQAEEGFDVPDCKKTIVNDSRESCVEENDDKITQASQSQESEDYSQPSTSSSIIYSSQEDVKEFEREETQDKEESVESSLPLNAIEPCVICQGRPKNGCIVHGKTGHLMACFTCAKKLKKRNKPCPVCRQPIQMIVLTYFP

On to “ATSP7041: α-helical stapled cyclic peptide targeting MDM2, conjugated to the photocatalyst through a modified azido-lysine (KLTFAEYWAQAASAA; staple (positions not given here); also: stapled, places not given here, photocatalyst conjugated via azido-lysine, place not given here)”, for which the “enrichment of target protein MDM2 compared to free photocatalyst control” value was determined as 3 fold.

These data come from patent publication US20220306683A1, “PROXIMITY-BASED LABELING SYSTEMS AND APPLICATIONS THEREOF” (The Trustees of Princeton University, priority 2019, published 2022).
